Laboratory results reported in patent publication US20240425607A1 (COMPUGEN, published 2024).

What was measured:
[1] = biological target: T1, mouse IL-18BP (construct not stated) (mouse, UniProt Q9Z0M9 29-193, limits assumed); experiment: KinExA, solution equilibrium
T1 construct: also called mIL18-BP
T1 sequence (looked up): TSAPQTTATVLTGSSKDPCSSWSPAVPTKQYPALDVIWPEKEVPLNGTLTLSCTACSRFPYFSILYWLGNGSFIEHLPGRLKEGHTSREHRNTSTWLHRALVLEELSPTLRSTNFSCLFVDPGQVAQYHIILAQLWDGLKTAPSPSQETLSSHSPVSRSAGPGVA

[2] = biological target: T2, cynomolgus monkey IL-18BP (construct not stated) (cynomolgus monkey); experiment: KinExA (figure legend; the text prints 208 fM)
T2 construct: also called cyno IL18BP; cyno IL-18BP

[3] = biological target: T2, cynomolgus monkey IL-18BP (construct …); experiment: KinExA, solution equilibrium
[4] = biological target: T3, human IL-18BP (recombinant, construct not stated) (human, UniProt O95998 31-194); experiment: KinExA, solution equilibrium
T3 construct: also called hIL-18BP; human monomeric IL18BP
T3 sequence: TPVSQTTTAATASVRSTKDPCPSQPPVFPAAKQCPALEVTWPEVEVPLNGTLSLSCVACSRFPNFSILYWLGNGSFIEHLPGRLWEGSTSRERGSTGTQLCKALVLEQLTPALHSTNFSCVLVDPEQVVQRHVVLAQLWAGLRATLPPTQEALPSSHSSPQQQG

mouse IL18-BP-Fc = biological target: T4, mouse IL18-BP-Fc (mouse, UniProt Q9Z0M9 29-193, limits assumed); experiment: Biacore T100; mouse IL18BP-Fc captured on anti-human Fc, Fab 300-2.21 nM in solution
T4 construct: R&D cat; 122-BP is named for the AbD35328 SPR; also called mouse IL18-BP-Fc (cat. 122-BP, R&D); mouse IL18-BP Fc fusion protein
T4 sequence (looked up): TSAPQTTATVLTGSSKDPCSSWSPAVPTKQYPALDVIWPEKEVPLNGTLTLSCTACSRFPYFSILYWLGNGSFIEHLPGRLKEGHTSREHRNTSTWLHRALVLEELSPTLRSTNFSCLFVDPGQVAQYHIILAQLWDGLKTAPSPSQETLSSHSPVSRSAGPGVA

B1: mouse IL-18 (ligand, UniProt P70380 36-192, looked up)
chain: NFGRLHCTTAVIRNINDQVLFVDKRQPVFEDMTDIDQSASEPQTRLIIYMYKDSEVRGLAVTLSVKDSKMSTLSCKNKIISFEEMDPPENIDDIQSDLIFFQKRVPGHNKMEFESSLYEGHFLACQKEDDAFKLILKKKDENGDKSVMFTLTNLHQS
notes: also called mIL-18; mouse IL-18 biotinylated (Sino Biological)
Kd [1]: ~3.7 pM

B2: ADI-71739 (antibody, V domains shown)
VH: QLQLQESGPGLVKPSETLSLTCTVSGGSISSPDYPWGWIRQPPGKGLEWIGSIYYQGATYYNPSLKSRVTISVDTSKNQFSLKLSSVTAADTAVYYCARGPYRQLFDYWGQGTLVTVSS
VL: DIQMTQSPSSVSASVGDRVTITCRASQGISSWLAWYQQKPGKAPKLLIYAASSLQSGVPSRFSGSGSGTDFTLTISSLQPEDFATYYCQQGSVFPYTFGGGTKVEIK
Kd [2]: 0.209 pM
Kd [3]: ~0.208 pM
Kd [4]: ~0.291 pM

B3: ADI-71739 Fab fragment (Fab, V domains shown)
VH: QLQLQESGPGLVKPSETLSLTCTVSGGSISSPDYPWGWIRQPPGKGLEWIGSIYYQGATYYNPSLKSRVTISVDTSKNQFSLKLSSVTAADTAVYYCARGPYRQLFDYWGQGTLVTVSS
VL: DIQMTQSPSSVSASVGDRVTITCRASQGISSWLAWYQQKPGKAPKLLIYAASSLQSGVPSRFSGSGSGTDFTLTISSLQPEDFATYYCQQGSVFPYTFGGGTKVEIK
notes: Used for the Biacore measurement on mouse IL18BP-Fc; also called anti-IL18BP Fab
Kd (mouse IL18-BP-Fc): ~4000 pM
